Data published in paper PMC3799859, “Sigma-1 Receptor Chaperone at the ER-Mitochondrion Interface Mediates the Mitochondrion-ER-Nucleus Signaling for Cellular Survival” (PLoS ONE, 2013).

Biological target: the molecule itself
Test: non-reducing gel and blot of the purified protein; ΔIRE1-V5/His purified on a Ni column, non-reducing condition (without β-mercaptoethanol)

B1: ΔIRE1-V5/His (ER lumenal domain of human IRE1) (domain or fragment, UniProt O75460 19-443, looked up)
chain: IFGSTSTVTLPETLLFVSTLDGSLHAVSKRTGSIKWTLKEDPVLQVPTHVEEPAFLPDPNDGSLYTLGSKNNEGLTKLPFTIPELVQASPCRSSDGILYMGKKQDIWYVIDLLTGEKQQTLSSAFADSLCPSTSLLYLGRTEYTITMYDTKTRELRWNATYFDYAASLPEDDVDYKMSHFVSNGDGLVVTVDSESGDVLWIQNYASPVVAFYVWQREGLRKVMHINVAVETLRYLTFMSGEVGRITKWKYPFPKETEAKSKLTPTLYVGKYSTSLYASPSMVHEGVAVVPRGSTLPLLEGPQTDGVTIGDKGECVITPSTDVKFDPGLKSKNKLNYLRNYWLLIGHHETPLSASTKMLERFPNNLPKHRENVIPADSEKKSFEEVINLVDQTSENAPTTVSRDVEEKPAHAPARPEAPVDSMLKD
notes: human IRE1, lumenal domain (ΔIRE1), lacking the cytoplasmic domain; Most of the purified protein is a dimer under non-reducing conditions; a portion was pretreated with β-mercaptoethanol to keep it monomeric; source: CHO, transfected (pcDNA3.1); in lysate, or purified from the cell extract on Ni-NTA agarose; not shown: V5, C-terminal, kept; His, C-terminal, kept
stoichiometry N: 2
